Results on 1 molecule are retold here after patent CN114773459A (UNIV SHENZHEN, dated 2022).

In the test the target is 新型冠状病毒(SARS-CoV-2) S1蛋白 (野生型) (SARS-CoV-2, UniProt P0DTC2 16-685).

B1: 纳米抗体Nb-H6 (VHH)
VHH: QLVESGGGLVQAGDSLRLSCAASERALSSFHMGWFRQAPGKQRAFVAAIKWRDGTTYYADSVKGRFTISRDNAKNTVYLQMNSLEPEDTAVYYCYYRGRWGTYWGQGTQVTVSS
B1 yielded a half-inhibitory concentration (IC50) of 9.8 µM.

A word on the IC50: it is the concentration that inhibits the measured activity by half. A high value points to a need for much substance.
